Test results as given in article PMC3320615, “β-Microseminoprotein Endows Post Coital Seminal Plasma with Potent Candidacidal Activity by a Calcium- and pH-Dependent Mechanism” (PLoS Pathogens, 2012).

Legend:
[1] = Size exclusion chromatography (dimerization); type: physicochemical; settings: pH 7.5; 50 mM Tris, 150 mM NaCl; 1 mM calcium or 1 mM EDTA; HiPrep 16/60 Sephacryl S 100
Description: Supplementary file ppat.1002625.s004.tif: Figure S3 Seize exclusion chromatography of MSP. […] (TIF) Click here for additional data file.

C. albicans = assay: Antifungal gel overlay assay (AU-PAGE); type: cell-based, Candida albicans
Method: Gel overlay assay was performed essentially as described. Briefly, duplicate samples were run on native Acid Urea (AU-PAGE) gels in 5% (v/v) acetic acid at 100 V for 1 h 20 min. Candida albicans was grown over night, washed and resuspended in 10 mM NaPO4 pH 7.4 and approximately 1×10^5 CFU were added to 12 ml melted underlay agarose (10 mM NaPO4, pH 7.4, 0.03% SAB, 1% agarose type 1 (Sigma, St. Louis, MO)) and poured into a square Petri dish. One AU-gel was stained with Coomassie brilliant blue and one AU gel was washed 3×4 min in 10 mM NaPO4, pH 7.4 and then placed on top of the agarose and incubated for 4 h at 37°C. The AU gel was then removed and an overlay agarose (6% SAB, 1% agarosetype 1 (Sigma)) was poured on top of the underlay and incubated over night at 30°C. To make the clearing zones more visible, the agarose was stained with Coomassie brilliant blue followed by destaining.

B1: β-microseminoprotein (natural protein, human, UniProt P08118 21-114, looked up)
chain: SCYFIPNEGVPGDSTRKCMDLKGNKHPINSEWQTDNCETCTCYETEISCCTLVSTPVGYDKDNCQRIFKKEDCKYIVVEKKDPKKTCSVSEWII
notes: human β-microseminoprotein (MSP, PSP94), native protein purified from seminal plasma; also called MSP; PSP94
With B1 the “Oligomeric state on size exclusion chromatography” value [1] was “eluted as a dimer” and the “Clearing zone in antifungal gel overlay assay” value (C. albicans) was “displayed antifungal activity by producing a clearing zone”.
